Measured values: the supplement of paper PMC9876800

Tested on: peptide library, one residue held at a place counted from the S/T acceptor
Assay: relative phosphorylation of the sub-library (ratio to the mean residue at this position); higher = residue favoured
Outline: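 Human or orthologue kinase constructs, purified and recombinant, were incubated under kinase-specific conditions in 384-well plates with biotinylated degenerate peptide sub-libraries. Each sub-library fixed one residue at one position around a central Ser/Thr. Incubations lasted 90 min with peptides at 50 μM and 50 μM ATP spiked with γ-32P-ATP, after which spots on streptavidin membranes were phosphorimaged and quantified by densitometry. Relative sub-library phosphorylation is a ratio to the mean residue at that position.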

Sequence of PAK4, construct: aa295-end, human (O96013 295-591, looked up): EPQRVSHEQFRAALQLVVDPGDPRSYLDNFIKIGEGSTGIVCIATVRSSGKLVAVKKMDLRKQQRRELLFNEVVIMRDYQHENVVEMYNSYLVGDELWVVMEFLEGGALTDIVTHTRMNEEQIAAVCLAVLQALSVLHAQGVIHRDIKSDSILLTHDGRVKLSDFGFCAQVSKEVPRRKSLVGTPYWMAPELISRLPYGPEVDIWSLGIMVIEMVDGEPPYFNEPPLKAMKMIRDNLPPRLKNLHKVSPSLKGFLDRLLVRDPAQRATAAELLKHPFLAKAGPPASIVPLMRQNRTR
Sequence of VRK2, construct: Full length, human (Q86Y07 whole entry, looked up): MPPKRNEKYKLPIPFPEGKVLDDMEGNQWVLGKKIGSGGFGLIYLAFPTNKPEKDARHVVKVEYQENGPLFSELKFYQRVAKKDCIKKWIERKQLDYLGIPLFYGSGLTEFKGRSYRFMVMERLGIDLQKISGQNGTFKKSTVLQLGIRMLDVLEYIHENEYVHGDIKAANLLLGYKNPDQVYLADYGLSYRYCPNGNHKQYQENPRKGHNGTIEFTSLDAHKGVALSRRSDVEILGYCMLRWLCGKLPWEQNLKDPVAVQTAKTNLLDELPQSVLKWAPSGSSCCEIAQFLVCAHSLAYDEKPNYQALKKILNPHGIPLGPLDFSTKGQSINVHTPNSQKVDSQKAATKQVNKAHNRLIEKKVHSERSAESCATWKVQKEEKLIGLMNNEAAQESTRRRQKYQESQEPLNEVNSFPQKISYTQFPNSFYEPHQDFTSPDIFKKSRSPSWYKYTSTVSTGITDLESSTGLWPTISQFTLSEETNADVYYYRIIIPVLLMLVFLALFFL
Sequence of MYLK4, construct: Full length, human (Q86YV6 whole entry, looked up): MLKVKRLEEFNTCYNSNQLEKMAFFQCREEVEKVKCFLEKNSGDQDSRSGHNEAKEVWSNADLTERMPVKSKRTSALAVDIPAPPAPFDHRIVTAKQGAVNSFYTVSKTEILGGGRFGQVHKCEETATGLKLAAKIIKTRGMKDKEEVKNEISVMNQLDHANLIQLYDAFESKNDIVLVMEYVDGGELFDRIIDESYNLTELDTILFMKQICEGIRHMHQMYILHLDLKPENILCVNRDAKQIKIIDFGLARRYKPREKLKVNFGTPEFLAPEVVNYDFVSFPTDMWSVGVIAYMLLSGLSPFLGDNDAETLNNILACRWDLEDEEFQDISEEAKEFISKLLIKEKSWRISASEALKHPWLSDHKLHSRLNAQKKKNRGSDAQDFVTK
Sequence of TRPM6, construct: aa1699-end, human (Q9BX84 1699-2022, looked up): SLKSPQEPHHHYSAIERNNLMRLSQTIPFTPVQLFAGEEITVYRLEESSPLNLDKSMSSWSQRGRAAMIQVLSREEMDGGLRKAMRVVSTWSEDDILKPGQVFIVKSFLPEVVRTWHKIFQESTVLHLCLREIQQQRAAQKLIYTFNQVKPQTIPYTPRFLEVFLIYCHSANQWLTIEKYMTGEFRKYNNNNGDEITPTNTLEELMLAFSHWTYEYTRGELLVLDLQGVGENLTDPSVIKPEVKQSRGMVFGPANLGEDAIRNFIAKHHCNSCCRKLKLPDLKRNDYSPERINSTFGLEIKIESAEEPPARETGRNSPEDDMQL

MYLK4, construct: Full length, human (from UniProt Q86YV6)
relative phosphorylation
Conditions | at +1 | at +2 | at +3 | at +4 | at -1 | at -2 | at -3 | at -4 | at -5
A fixed | 0.96 | 0.643 | 0.61 | 0.778 | 0.871 | 0.876 | 0.764 | 1.09 | 0.837
D fixed | 0.566 | 0.833 | 0.854 | 0.974 | 0.639 | 0.272 | 0.32 | 0.437 | 0.41
E fixed | 0.776 | 1.04 | 0.652 | 0.871 | 0.49 | 0.273 | 0.339 | 0.628 | 0.432
F fixed | 1.25 | 1.2 | 1.59 | 1.04 | 0.915 | 0.405 | 0.511 | 0.909 | 1.23
G fixed | 0.814 | 0.588 | 0.715 | 0.858 | 0.533 | 0.468 | 0.544 | 1.01 | 0.735
H fixed | 0.885 | 1.27 | 0.849 | 0.917 | 1.13 | 1.17 | 0.737 | 0.907 | 0.912
I fixed | 1.01 | 1.03 | 1.05 | 1.27 | 0.817 | 0.485 | 0.63 | 1.02 | 1.25
K fixed | 1.28 | 1.39 | 0.718 | 0.807 | 1.8 | 1.76 | 2.19 | 1.89 | 1.65
L fixed | 1.03 | 1.02 | 1.27 | 1.33 | 1.74 | 0.412 | 0.455 | 0.915 | 1.24
M fixed | 1.3 | 0.948 | 1.09 | 0.938 | 1.19 | 0.5 | 0.538 | 0.973 | 1.06
N fixed | 0.921 | 0.946 | 1.01 | 1.05 | 1.34 | 0.588 | 0.498 | 0.826 | 0.694
P fixed | 0.386 | 0.713 | 0.517 | 1.18 | 0.775 | 0.389 | 0.538 | 0.743 | 0.843
Q fixed | 1.27 | 0.949 | 0.659 | 1.04 | 0.889 | 0.725 | 0.631 | 0.925 | 0.749
R fixed | 1.55 | 1.41 | 0.808 | 0.818 | 1.49 | 7.39 | 6.83 | 2.06 | 1.85
V fixed | 0.981 | 1.09 | 0.834 | 0.982 | 0.701 | 0.411 | 0.507 | 1.01 | 1
W fixed | 1.13 | 0.89 | 2.75 | 1.27 | 0.839 | 0.466 | 0.517 | 0.719 | 0.852
Y fixed | 0.888 | 1.04 | 1.04 | 0.883 | 0.848 | 0.416 | 0.449 | 0.936 | 1.26
pThr fixed | 1.88 | 1.98 | 0.701 | 1.09 | 0.794 | 0.666 | 0.917 | 0.92 | 0.692
pTyr fixed | 0.998 | 1.68 | 1.14 | 1.15 | 1.03 | 0.469 | 0.94 | 0.797 | 0.752

PAK4, construct: aa295-end, human (from UniProt O96013)
relative phosphorylation
Conditions | at +1 | at +2 | at +3 | at +4 | at -1 | at -2 | at -3 | at -4 | at -5
A fixed | 0.553 | 4.9 | 0.88 | 0.922 | 0.732 | 0.279 | 0.735 | 1.12 | 1.3
D fixed | 0.199 | 0.382 | 0.663 | 0.928 | 0.373 | 0.145 | 0.295 | 0.611 | 0.77
E fixed | 0.194 | 0.23 | 0.814 | 0.754 | 0.273 | 0.136 | 0.265 | 0.603 | 0.58
F fixed | 1.3 | 0.849 | 1.81 | 0.823 | 1.06 | 0.445 | 0.54 | 0.844 | 0.852
G fixed | 0.327 | 0.715 | 0.996 | 1.13 | 0.534 | 0.244 | 0.739 | 1.35 | 1.29
H fixed | 0.9 | 0.663 | 1.12 | 1.23 | 1.34 | 0.76 | 0.801 | 1.17 | 1.09
I fixed | 1.79 | 1.14 | 1.36 | 0.8 | 0.563 | 0.284 | 0.415 | 0.655 | 0.727
K fixed | 0.621 | 0.267 | 0.544 | 0.817 | 1.45 | 0.725 | 3.15 | 1.51 | 1.53
L fixed | 1.38 | 0.673 | 1.35 | 0.788 | 1.18 | 0.244 | 0.49 | 0.74 | 0.71
M fixed | 1.96 | 0.588 | 1.1 | 0.877 | 1.38 | 0.334 | 0.599 | 0.913 | 0.714
N fixed | 0.366 | 0.542 | 0.542 | 0.91 | 0.967 | 0.287 | 0.77 | 0.873 | 1
P fixed | 0.215 | 0.667 | 0.797 | 2.16 | 0.251 | 0.634 | 0.684 | 0.868 | 1.03
Q fixed | 0.694 | 0.433 | 0.682 | 1.02 | 1.06 | 0.641 | 0.96 | 0.902 | 0.897
R fixed | 0.964 | 0.297 | 0.615 | 0.983 | 2.76 | 10 | 4.61 | 1.98 | 1.81
V fixed | 1.47 | 2.1 | 1.07 | 0.761 | 0.579 | 0.282 | 0.413 | 0.66 | 0.75
W fixed | 2.49 | 0.806 | 1.45 | 1.21 | 1.19 | 0.417 | 0.876 | 1.27 | 0.987
Y fixed | 1.57 | 1.75 | 1.2 | 0.894 | 1.3 | 1.1 | 0.651 | 0.941 | 0.961
pThr fixed | 0.339 | 0.403 | 0.705 | 1.45 | 0.233 | 0.218 | 0.398 | 0.688 | 0.662
pTyr fixed | 0.514 | 0.767 | 1.34 | 1.19 | 0.261 | 0.232 | 0.402 | 0.579 | 0.65

TRPM6, construct: aa1699-end, human (from UniProt Q9BX84)
relative phosphorylation
Conditions | at +1 | at +2 | at +3 | at +4 | at -1 | at -2 | at -3 | at -4 | at -5
A fixed | 0.996 | 1.48 | 2.44 | 0.962 | 0.767 | 0.976 | 0.898 | 1.12 | 1.29
D fixed | 0.396 | 0.307 | 0.4 | 0.983 | 0.669 | 0.615 | 0.898 | 1 | 1.12
E fixed | 0.732 | 0.319 | 0.381 | 0.993 | 0.577 | 0.678 | 0.928 | 1.11 | 1.22
F fixed | 0.824 | 1.31 | 0.776 | 0.816 | 0.504 | 1.03 | 0.829 | 0.991 | 1.02
G fixed | 0.509 | 0.788 | 1.09 | 1.33 | 0.421 | 1.36 | 1.06 | 1.35 | 1.43
H fixed | 1.08 | 0.995 | 0.992 | 1.01 | 1.24 | 0.768 | 1.08 | 0.911 | 1.11
I fixed | 1.19 | 0.651 | 0.394 | 0.755 | 0.46 | 0.519 | 0.825 | 0.819 | 0.69
K fixed | 2.27 | 0.855 | 2.27 | 1.27 | 4.26 | 0.678 | 1.18 | 0.887 | 1.12
L fixed | 0.909 | 0.92 | 0.633 | 0.705 | 0.673 | 0.772 | 0.928 | 0.81 | 0.696
M fixed | 0.816 | 1.38 | 0.708 | 0.88 | 0.576 | 1.17 | 0.838 | 0.914 | 0.767
N fixed | 0.685 | 0.66 | 1.04 | 0.945 | 1.08 | 0.731 | 1.34 | 0.931 | 1
P fixed | 0.376 | 2.29 | 0.963 | 1.3 | 0.964 | 1.74 | 1.5 | 1.35 | 0.904
Q fixed | 1.36 | 0.956 | 0.827 | 1.27 | 0.892 | 0.773 | 1.14 | 1.08 | 1.07
R fixed | 1.96 | 0.942 | 1.83 | 1.02 | 2.16 | 0.609 | 0.963 | 0.901 | 0.928
V fixed | 0.903 | 0.562 | 0.539 | 0.805 | 0.51 | 0.609 | 0.737 | 0.789 | 0.747
W fixed | 0.873 | 1.28 | 0.679 | 1.01 | 0.464 | 3.23 | 1.09 | 1.16 | 0.996
Y fixed | 1.12 | 1.3 | 1.04 | 0.948 | 0.78 | 0.746 | 0.774 | 0.875 | 0.884
pThr fixed | 0.646 | 0.552 | 0.592 | 1.04 | 0.7 | 0.837 | 1.1 | 1.2 | 1.21
pTyr fixed | 1.15 | 0.701 | 0.772 | 0.915 | 0.729 | 0.729 | 0.959 | 1.02 | 0.79

VRK2, construct: Full length, human (from UniProt Q86Y07)
relative phosphorylation
Conditions | at +1 | at +2 | at +3 | at +4 | at -1 | at -2 | at -3 | at -4 | at -5
A fixed | 0.906 | 0.925 | 0.998 | 1.07 | 0.943 | 1 | 1.06 | 1.12 | 1.08
D fixed | 0.579 | 0.622 | 0.675 | 0.977 | 0.788 | 0.836 | 0.812 | 0.845 | 0.97
E fixed | 0.659 | 0.575 | 0.629 | 0.791 | 0.67 | 0.804 | 0.829 | 0.917 | 0.862
F fixed | 0.883 | 1.23 | 1.05 | 1.04 | 0.86 | 0.978 | 0.971 | 0.957 | 0.974
G fixed | 1.02 | 1.11 | 1.15 | 1.17 | 0.959 | 1.58 | 1.23 | 1.24 | 1.15
H fixed | 0.842 | 0.985 | 1.28 | 1.14 | 1.39 | 1.04 | 1.12 | 1.04 | 1.17
I fixed | 1.23 | 1.34 | 0.907 | 0.881 | 1.03 | 0.824 | 0.927 | 0.875 | 0.866
K fixed | 0.949 | 0.924 | 0.875 | 0.887 | 1.04 | 0.919 | 0.881 | 0.945 | 0.979
L fixed | 0.796 | 1.33 | 0.896 | 0.937 | 1.15 | 1.01 | 0.933 | 0.875 | 0.866
M fixed | 1.01 | 1.27 | 0.872 | 0.954 | 1.02 | 1.16 | 0.98 | 0.96 | 0.885
N fixed | 0.759 | 0.726 | 1.05 | 0.979 | 0.956 | 0.966 | 0.985 | 0.917 | 0.906
P fixed | 1.15 | 0.703 | 0.759 | 1.03 | 1.1 | 1.08 | 1.27 | 1.22 | 1.16
Q fixed | 1.13 | 0.873 | 0.875 | 0.905 | 0.914 | 0.969 | 0.878 | 0.887 | 0.922
R fixed | 1.57 | 0.836 | 1.37 | 0.937 | 1.06 | 1.06 | 1.06 | 1.04 | 1.05
V fixed | 1.53 | 1.07 | 0.935 | 0.912 | 1.22 | 0.877 | 0.936 | 0.996 | 0.974
W fixed | 1.04 | 1.3 | 1.6 | 1.32 | 0.876 | 0.964 | 1.06 | 1.11 | 1.07
Y fixed | 0.948 | 1.17 | 1.09 | 1.07 | 1.03 | 0.935 | 1.06 | 1.06 | 1.11
pThr fixed | 0.648 | 0.686 | 0.733 | 1.08 | 0.83 | 0.792 | 0.923 | 1 | 1.01
pTyr fixed | 0.826 | 0.883 | 0.914 | 1.4 | 0.861 | 0.8 | 0.982 | 1.02 | 0.981
